Source: patent publication US20030064071A1 (NEW YORK UNIVERSITY, published 2003)

Target: T1, M-tropic HIV-1MN envelope glycoprotein gp120 (HIV-1 (strain MN), UniProt P05877 32-513)
T1 construct: domain: gp120; also called HIV-1 gp120; HIV-1MN gp120
Test: fluorescent bead adhesion assay, flow cytometry

B1: DC-SIGN (receptor)
chain: MSDSKEPRLQQLGLLEEEQLRGLGFRQTRGYKSLAGCLGHGPLVLQLLSFTLLAGLLVQVSKVPSSISQEQSRQDAIYQNLTQLKAAVGELSEKSKLQEIYQELTQLKAAVGELPEKSKLQEIYQELTRLKAAVGELPEKSKLQEIYQELTWLKAAVGELPEKSKMQEIYQELTRLKAAVGELPEKSKQQEIYQELTRLKAAVGELPEKSKQQEIYQELTRLKAAVGELPEKSKQQEIYQELTQLKAAVERLCHPCPWEWTFFQGNCYFMSNSQRNWHDSITACKEVGAQLVVIKSAEEQNFLQLQSSRSNRFTWMGLSDLNQEGTWQWVDGSPLLPSFKQYWNRGEPNNVGEEDCAEFSGNGWNDDKCNLAKFWICKKSAASCSRDEEQFLSPAPATPNPPPA
notes: also called THP-DC-SIGN (THP-1 transfectant)
B1: binds.
